These binders were tested against T1, human G-CSF receptor (human, UniProt Q99062 25-836) (assay: cell-based or functional assay).
T1 sequence (looked up): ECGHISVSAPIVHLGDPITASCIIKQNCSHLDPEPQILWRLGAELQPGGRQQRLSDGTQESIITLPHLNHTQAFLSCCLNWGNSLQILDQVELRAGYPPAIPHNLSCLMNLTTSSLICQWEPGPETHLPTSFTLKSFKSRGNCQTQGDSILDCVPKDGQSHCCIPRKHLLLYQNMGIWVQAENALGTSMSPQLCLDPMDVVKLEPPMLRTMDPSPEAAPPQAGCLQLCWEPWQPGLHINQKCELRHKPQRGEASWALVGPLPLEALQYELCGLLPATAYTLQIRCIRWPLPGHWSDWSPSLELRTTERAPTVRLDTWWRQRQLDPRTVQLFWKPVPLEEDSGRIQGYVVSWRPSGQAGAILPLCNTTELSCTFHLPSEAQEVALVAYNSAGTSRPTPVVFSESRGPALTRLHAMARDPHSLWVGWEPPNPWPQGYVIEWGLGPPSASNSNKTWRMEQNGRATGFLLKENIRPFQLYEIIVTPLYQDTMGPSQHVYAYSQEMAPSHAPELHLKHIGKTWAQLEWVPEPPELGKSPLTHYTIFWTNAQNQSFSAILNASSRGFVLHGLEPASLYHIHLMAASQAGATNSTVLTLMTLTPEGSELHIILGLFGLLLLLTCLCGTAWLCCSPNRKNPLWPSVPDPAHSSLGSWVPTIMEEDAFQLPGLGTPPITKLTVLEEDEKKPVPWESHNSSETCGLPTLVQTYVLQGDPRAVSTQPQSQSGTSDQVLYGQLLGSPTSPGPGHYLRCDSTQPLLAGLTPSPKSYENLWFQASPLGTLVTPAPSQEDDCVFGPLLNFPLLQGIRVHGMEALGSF

| Binder | EC50 (% of hG-CSF) non-conjugated | EC50 (% of hG-CSF) conjugated to SPA-PEG 5000 |
| --- | --- | --- |
| G-CSF variant K16/34/40R S159K, non-conjugated (ligand) TPLGPASSLPQSFLLRCLEQVRKIQGDGAALQERLCATYRLCHPEELVLLGHSLGIPWAPLSSCPSQALQLAGCLSQLHSGLFLYQGLLQALEGISPELGPTLDTLQLDVADFATTIWQQMEELGMAPALQPTQGAMPAFASAFQRRAGGVLVASHLQKFLEVSYRVLRHLAQP | 20 % of hG-CSF | – |
| G-CSF variant K16/34/40R Q90K S159K, non-conjugated (ligand) TPLGPASSLPQSFLLRCLEQVRKIQGDGAALQERLCATYRLCHPEELVLLGHSLGIPWAPLSSCPSQALQLAGCLSQLHSGLFLYQGLLKALEGISPELGPTLDTLQLDVADFATTIWQQMEELGMAPALQPTQGAMPAFASAFQRRAGGVLVASHLQKFLEVSYRVLRHLAQP | 45 % of hG-CSF | – |
| G-CSF variant K16/34/40R T105K S159K, non-conjugated (ligand) TPLGPASSLPQSFLLRCLEQVRKIQGDGAALQERLCATYRLCHPEELVLLGHSLGIPWAPLSSCPSQALQLAGCLSQLHSGLFLYQGLLQALEGISPELGPTLDKLQLDVADFATTIWQQMEELGMAPALQPTQGAMPAFASAFQRRAGGVLVASHLQKFLEVSYRVLRHLAQP | 40 % of hG-CSF | – |
| G-CSF variant K16/34/40R Q90K Q120K, non-conjugated (ligand) TPLGPASSLPQSFLLRCLEQVRKIQGDGAALQERLCATYRLCHPEELVLLGHSLGIPWAPLSSCPSQALQLAGCLSQLHSGLFLYQGLLKALEGISPELGPTLDTLQLDVADFATTIWQKMEELGMAPALQPTQGAMPAFASAFQRRAGGVLVASHLQSFLEVSYRVLRHLAQP | 25 % of hG-CSF | – |
| G-CSF variant 23Q, non-conjugated (ligand) TPLGPASSLPQSFLLKCLEQVRQIQGDGAALQEKLCATYKLCHPEELVLLGHSLGIPWAPLSSCPSQALQLAGCLSQLHSGLFLYQGLLQALEGISPELGPTLDTLQLDVADFATTIWQQMEELGMAPALQPTQGAMPAFASAFQRRAGGVLVASHLQSFLEVSYRVLRHLAQP | 80 % of hG-CSF | – |
| G-CSF variant K16/34/40R Q70K Q120K conjugated to SPA-PEG 5000 (ligand, SPA-PEG 5000 conjugated to the available PEGylation sites) TPLGPASSLPQSFLLRCLEQVRKIQGDGAALQERLCATYRLCHPEELVLLGHSLGIPWAPLSSCPSQALKLAGCLSQLHSGLFLYQGLLQALEGISPELGPTLDTLQLDVADFATTIWQKMEELGMAPALQPTQGAMPAFASAFQRRAGGVLVASHLQSFLEVSYRVLRHLAQP | – | 25 % of hG-CSF |
| G-CSF variant K16/34/40R T105K Q120K, non-conjugated (ligand) TPLGPASSLPQSFLLRCLEQVRKIQGDGAALQERLCATYRLCHPEELVLLGHSLGIPWAPLSSCPSQALQLAGCLSQLHSGLFLYQGLLQALEGISPELGPTLDKLQLDVADFATTIWQKMEELGMAPALQPTQGAMPAFASAFQRRAGGVLVASHLQSFLEVSYRVLRHLAQP | 20 % of hG-CSF | – |
| G-CSF variant K16/34/40R S159K conjugated to SPA-PEG 5000 (ligand, SPA-PEG 5000 conjugated to the available PEGylation sites) TPLGPASSLPQSFLLRCLEQVRKIQGDGAALQERLCATYRLCHPEELVLLGHSLGIPWAPLSSCPSQALQLAGCLSQLHSGLFLYQGLLQALEGISPELGPTLDTLQLDVADFATTIWQQMEELGMAPALQPTQGAMPAFASAFQRRAGGVLVASHLQKFLEVSYRVLRHLAQP | – | 3 % of hG-CSF |
| G-CSF variant K16/34/40R Q90K T105K, non-conjugated (ligand) TPLGPASSLPQSFLLRCLEQVRKIQGDGAALQERLCATYRLCHPEELVLLGHSLGIPWAPLSSCPSQALQLAGCLSQLHSGLFLYQGLLKALEGISPELGPTLDKLQLDVADFATTIWQQMEELGMAPALQPTQGAMPAFASAFQRRAGGVLVASHLQSFLEVSYRVLRHLAQP | 40 % of hG-CSF | – |
| G-CSF variant K16/34/40R T105K S159K conjugated to SPA-PEG 5000 (ligand, SPA-PEG 5000 conjugated to the available PEGylation sites) TPLGPASSLPQSFLLRCLEQVRKIQGDGAALQERLCATYRLCHPEELVLLGHSLGIPWAPLSSCPSQALQLAGCLSQLHSGLFLYQGLLQALEGISPELGPTLDKLQLDVADFATTIWQQMEELGMAPALQPTQGAMPAFASAFQRRAGGVLVASHLQKFLEVSYRVLRHLAQP | – | 20 % of hG-CSF |
| G-CSF variant K16/34/40R Q70K Q120K, non-conjugated (ligand) TPLGPASSLPQSFLLRCLEQVRKIQGDGAALQERLCATYRLCHPEELVLLGHSLGIPWAPLSSCPSQALKLAGCLSQLHSGLFLYQGLLQALEGISPELGPTLDTLQLDVADFATTIWQKMEELGMAPALQPTQGAMPAFASAFQRRAGGVLVASHLQSFLEVSYRVLRHLAQP | 25 % of hG-CSF | – |
| G-CSF variant K16/34/40R Q70K Q90K T105K, non-conjugated (ligand) TPLGPASSLPQSFLLRCLEQVRKIQGDGAALQERLCATYRLCHPEELVLLGHSLGIPWAPLSSCPSQALKLAGCLSQLHSGLFLYQGLLKALEGISPELGPTLDKLQLDVADFATTIWQQMEELGMAPALQPTQGAMPAFASAFQRRAGGVLVASHLQSFLEVSYRVLRHLAQP | 10 % of hG-CSF | – |
| G-CSF variant 16Q conjugated to SPA-PEG 5000 (ligand, SPA-PEG 5000 conjugated to the available PEGylation sites) TPLGPASSLPQSFLLQCLEQVRKIQGDGAALQEKLCATYKLCHPEELVLLGHSLGIPWAPLSSCPSQALQLAGCLSQLHSGLFLYQGLLQALEGISPELGPTLDTLQLDVADFATTIWQQMEELGMAPALQPTQGAMPAFASAFQRRAGGVLVASHLQSFLEVSYRVLRHLAQP | – | 1 % of hG-CSF |
| G-CSF variant K16/34/40R Q90K T105K conjugated to SPA-PEG 5000 (ligand, SPA-PEG 5000 conjugated to the available PEGylation sites) TPLGPASSLPQSFLLRCLEQVRKIQGDGAALQERLCATYRLCHPEELVLLGHSLGIPWAPLSSCPSQALQLAGCLSQLHSGLFLYQGLLKALEGISPELGPTLDKLQLDVADFATTIWQQMEELGMAPALQPTQGAMPAFASAFQRRAGGVLVASHLQSFLEVSYRVLRHLAQP | – | 10 % of hG-CSF |
| G-CSF variant K16/34/40R Q120K T133K conjugated to SPA-PEG 5000 (ligand, SPA-PEG 5000 conjugated to the available PEGylation sites) TPLGPASSLPQSFLLRCLEQVRKIQGDGAALQERLCATYRLCHPEELVLLGHSLGIPWAPLSSCPSQALQLAGCLSQLHSGLFLYQGLLQALEGISPELGPTLDTLQLDVADFATTIWQKMEELGMAPALQPKQGAMPAFASAFQRRAGGVLVASHLQSFLEVSYRVLRHLAQP | – | 8 % of hG-CSF |
| G-CSF variant K16/34/40R Q120K T133K, non-conjugated (ligand) TPLGPASSLPQSFLLRCLEQVRKIQGDGAALQERLCATYRLCHPEELVLLGHSLGIPWAPLSSCPSQALQLAGCLSQLHSGLFLYQGLLQALEGISPELGPTLDTLQLDVADFATTIWQKMEELGMAPALQPKQGAMPAFASAFQRRAGGVLVASHLQSFLEVSYRVLRHLAQP | 20 % of hG-CSF | – |
| G-CSF variant K16/34/40R T105K Q120K conjugated to SPA-PEG 5000 (ligand, SPA-PEG 5000 conjugated to the available PEGylation sites) TPLGPASSLPQSFLLRCLEQVRKIQGDGAALQERLCATYRLCHPEELVLLGHSLGIPWAPLSSCPSQALQLAGCLSQLHSGLFLYQGLLQALEGISPELGPTLDKLQLDVADFATTIWQKMEELGMAPALQPTQGAMPAFASAFQRRAGGVLVASHLQSFLEVSYRVLRHLAQP | – | 8 % of hG-CSF |
| G-CSF variant K16/34/40R Q70K Q90K conjugated to SPA-PEG 5000 (ligand, SPA-PEG 5000 conjugated to the available PEGylation sites) TPLGPASSLPQSFLLRCLEQVRKIQGDGAALQERLCATYRLCHPEELVLLGHSLGIPWAPLSSCPSQALKLAGCLSQLHSGLFLYQGLLKALEGISPELGPTLDTLQLDVADFATTIWQQMEELGMAPALQPTQGAMPAFASAFQRRAGGVLVASHLQSFLEVSYRVLRHLAQP | – | 20 % of hG-CSF |
| G-CSF variant K16/34/40R Q120K S142K, non-conjugated (ligand) TPLGPASSLPQSFLLRCLEQVRKIQGDGAALQERLCATYRLCHPEELVLLGHSLGIPWAPLSSCPSQALQLAGCLSQLHSGLFLYQGLLQALEGISPELGPTLDTLQLDVADFATTIWQKMEELGMAPALQPTQGAMPAFAKAFQRRAGGVLVASHLQSFLEVSYRVLRHLAQP | 10 % of hG-CSF | – |
| G-CSF variant K16/34/40R Q70K Q90K T105K conjugated to SPA-PEG 5000 (ligand, SPA-PEG 5000 conjugated to the available PEGylation sites) TPLGPASSLPQSFLLRCLEQVRKIQGDGAALQERLCATYRLCHPEELVLLGHSLGIPWAPLSSCPSQALKLAGCLSQLHSGLFLYQGLLKALEGISPELGPTLDKLQLDVADFATTIWQQMEELGMAPALQPTQGAMPAFASAFQRRAGGVLVASHLQSFLEVSYRVLRHLAQP | – | 4 % of hG-CSF |
| G-CSF variant K16/34/40R Q120K S142K conjugated to SPA-PEG 5000 (ligand, SPA-PEG 5000 conjugated to the available PEGylation sites) TPLGPASSLPQSFLLRCLEQVRKIQGDGAALQERLCATYRLCHPEELVLLGHSLGIPWAPLSSCPSQALQLAGCLSQLHSGLFLYQGLLQALEGISPELGPTLDTLQLDVADFATTIWQKMEELGMAPALQPTQGAMPAFAKAFQRRAGGVLVASHLQSFLEVSYRVLRHLAQP | – | 2 % of hG-CSF |
| G-CSF variant K16/34/40R Q90K Q120K conjugated to SPA-PEG 5000 (ligand, SPA-PEG 5000 conjugated to the available PEGylation sites) TPLGPASSLPQSFLLRCLEQVRKIQGDGAALQERLCATYRLCHPEELVLLGHSLGIPWAPLSSCPSQALQLAGCLSQLHSGLFLYQGLLKALEGISPELGPTLDTLQLDVADFATTIWQKMEELGMAPALQPTQGAMPAFASAFQRRAGGVLVASHLQSFLEVSYRVLRHLAQP | – | 15 % of hG-CSF |

Reference: patent US20030118612A1 (MAXYGEN, published 2003)
